Test results taken from patent publication US20240269252A1, “COMPOSITIONS FOR INDUCING AN IMMUNE RESPONSE” (President and Fellows of Harvard College, priority 2017, published 2024).

Assay: Biomolecule release quantification: incorporation efficiency and release kinetics of CpG ODN, GM-CSF and antigen from cryogel vaccines
Assay type: physicochemical
Details: for encapsulation efficiency: encapsulated in vaccine cryogel by cryo-polymerization

Substance | encapsulation efficiency [%] | CpG-ODN eluted from the hydrogel (within the first 2 days) [%] | burst release of the loaded amount (GM-CSF from vaccine cryogel, in vitro) | GM-CSF released (over the first 5 days in vitro) [%]
5′-TCCATGACGTTCCTGACGTT-3′ [CpG-ODN, reference compound] | 48 | 50 | – | –
granulocyte-macrophage colony-stimulating factor [GM-CSF] | 87 | – | about 8% | 85
